The text below walks through data of the RNAGym collection of RNA variant scans (doi:10.7554/elife.80360).

To fix the notation:
B1: HDV Ribozyme (parent)
chain: GGCCGGCAUGGUCCCAGCCUCCUCGCUGGCGCCGGCUGGGCAACAUUCCGAGGGGACCGUCCCCUCGGUAAUGGCGAAUGGGACCCA

This data set covers variants of B1. In words: self-cleavage, relative activity (ratio to wild type); higher = more cleavage; co-transcriptional.
On to GGCCGGCAUGGUCCCAGCCUCCUCGCUAGCGCCGGCUGGGCAACAUUGCGAGGGGACCGUCCCCUCGGUAAUGGCGAAUGGGACCCA [G28A C48G], for which the self-cleavage was determined as 0. With GGCCGGCAUGGUCCCAGCCUCCUCGCGGGCGCCAGCUGGGCAACAUUCCGAGGGGACCGUCCCCUCGGUAAUGGCGAAUGGGACCCA [U27G G34A], the self-cleavage came to 0.415.

In the case of GGCCGGCAUGGUCCCAGCCUCCUCGCGGGCGCCCGCUGGGCAACAUUCCGAGGGGACCGUCCCCUCGGUAAUGGCGAAUGGGACCCA [U27G G34C], the self-cleavage amounted to 0.0692. Next, GGCCGGCAUGGUCCCAGCCUCCUCGCUAGCGCCGGCUGGGCAACAUUCCGAGGGGACGGUCCCCUCGGUAAUGGCGAAUGGGACCCA [G28A C58G]: 0.0369; GGCCGGCAUGGUCCCAGCCUCCUCGCGGGCGCCGGCUGGGCAACAUUCCGAGGGGACCGUCCCCUCGGUAAAGGCGAAUGGGACCCA [U27G U72A]: 0.361. Next, GGCCGGCAUGGUCCCAGCCUCCUCGCUAGCGCCGGCUGGGCAACAUUCCGAGGGGACCGUCCCCUCGGUAAUGGCGCAUGGGACCCA [G28A A77C]: 0.119; GGCCGGCAUGGUCCCAGCCUCCUCGCGGGCGCCGGCUGGGCAACAUUCCGAGGGGACCGGCCCCUCGGUAAUGGCGAAUGGGACCCA [U27G U60G]: 0.978. The figure for GGCCGGCAUGGUCCCAGCCUCCUCGCGGGCGCCGGCUGGGCAACAUUCCGAGGGGACCGUCCCCUCGGUAAUGGCGAAUGUGACCCA [U27G G81U] is 0.643; for GGCCGGCAUGGUCCCAGCCUCCUCGCUAGCGCCGGCUGGCCAACAUUCCGAGGGGACCGUCCCCUCGGUAAUGGCGAAUGGGACCCA [G28A G40C] it is 0.0702; for GGCCGGCAUGGUCCCAGCCUCCUCGCUAGCGCCGGCUGGUCAACAUUCCGAGGGGACCGUCCCCUCGGUAAUGGCGAAUGGGACCCA [G28A G40U] it is 0.0256. In the case of GGCCGGCAUGGUCCCAGCCUCCUCGCUAGCGCCGGCUGGGCACCAUUCCGAGGGGACCGUCCCCUCGGUAAUGGCGAAUGGGACCCA [G28A A43C], the self-cleavage came to 0.108. Next, GGCCGGCAUGGUCCCAGCCUCCUCGCGGGCGCCGGCUGGGCAACAUUCCGAGGGGACCGUCCCCUCCGUAAUGGCGAAUGGGACCCA [U27G G67C]: 0.653. The figure for GGCCGGCAUGGUCCCAGCCUCCUCGCUAGCGCGGGCUGGGCAACAUUCCGAGGGGACCGUCCCCUCGGUAAUGGCGAAUGGGACCCA [G28A C33G] is 0.149; for GGCCGGCAUGGUCCCAGCCUCCUCGCUAGCGCUGGCUGGGCAACAUUCCGAGGGGACCGUCCCCUCGGUAAUGGCGAAUGGGACCCA [G28A C33U] it is 0.0234. On to GGCCGGCAUGGUCCCAGCCUCCUCGCUAGCGCCGGCUGGGCAACAUUCCGAGGGGACCGUCCCCUCAGUAAUGGCGAAUGGGACCCA [G28A G67A], for which the self-cleavage worked out at 0.0936. With GGCCGGCAUGGUCCCAGCCUCCUCGCUAGCGCCGGCUGGGCAACAUUCCGAGUGGACCGUCCCCUCGGUAAUGGCGAAUGGGACCCA [G28A G53U], the self-cleavage came out at 0.0615. Take GGCCGGCAUGGUCCCAGCCUCCUCGCUAGCGCCGGCUGGGCAACAUUCCGAGGGGACCGUCCCCUCGGUAAUGGCGAAUAGGACCCA [G28A G80A]: the self-cleavage worked out at 0.188. Next, GGCCGGCAUGGUCCCAGCCUCCUCGCUAGCGCCGGCUGGGCAACAUUCCGAGGGGACCGUCCCCUCGGUAAUGGCGAAUCGGACCCA [G28A G80C]: 0.0396; GGCCGGCAUGGUCCCAGCCUCCUCGCGGGCGCCGGCUGGGCAACAGUCCGAGGGGACCGUCCCCUCGGUAAUGGCGAAUGGGACCCA [U27G U46G]: 0.462; GGCCGGCAUGGUCCCAGCCUCCUCGCUAGCGCCGGCUGGGCAACAUUCCGAGGGGACCGUCCCCUCGUUAAUGGCGAAUGGGACCCA [G28A G68U]: 0.0733.

As to GGCCGGCAUGGUCCCAGCCUCCUCGCGGGCGCCGGCUGGGCAACAUUCCGAGAGGACCGUCCCCUCGGUAAUGGCGAAUGGGACCCA [U27G G53A], the self-cleavage is 0.923. Next, GGCCGGCAUGGUCCCAGCCUCCUCGCGGGCGCCGGCUGGGCAACAUUCCGAGCGGACCGUCCCCUCGGUAAUGGCGAAUGGGACCCA [U27G G53C]: 1.01.

For GGCCGGCAUGGUCCCAGCCUCCUCGCGGGCGCCGGCUGGGCAACAUUCCGAUGGGACCGUCCCCUCGGUAAUGGCGAAUGGGACCCA [U27G G52U], the self-cleavage came to 0.872.

Consider GGCCGGCAUGGUCCCAGCCUCCUCGCGGGCGCCGGCUGGGCAACAUUCCGAAGGGACCGUCCCCUCGGUAAUGGCGAAUGGGACCCA [U27G G52A], for which the self-cleavage came out at 1.02. The figure for GGCCGGCAUGGUCCCAGCCUCCUCGCGGGCGCCGGCUGGGCAACAUUCCGAGGGGACCGUCCCCUCGGUAAUGUCGAAUGGGACCCA [U27G G74U] is 0.151; for GGCCGGCAUGGUCCCAGCCUCCUCGCUAGCGCCGGCUGGGCAACAUUCCGAGGGGACCGUCUCCUCGGUAAUGGCGAAUGGGACCCA [G28A C62U] it is 0.134. Next, GGCCGGCAUGGUCCCAGCCUCCUCGCGGGCGCCGGCUGGGCAACAUUCCGAGGGGACCGUCCCCUCGGAAAUGGCGAAUGGGACCCA [U27G U69A]: 0.959. GGCCGGCAUGGUCCCAGCCUCCUCGCGGGCGCCGGCUGUGCAACAUUCCGAGGGGACCGUCCCCUCGGUAAUGGCGAAUGGGACCCA [U27G G39U]: the self-cleavage came out at 0.222.

As to GGCCGGCAUGGUCCCAGCCUCCUCGCUAGCGCCGGCUGUGCAACAUUCCGAGGGGACCGUCCCCUCGGUAAUGGCGAAUGGGACCCA [G28A G39U], the self-cleavage amounted to 0.0692. Next, GGCCGGCAUGGUCCCAGCCUCCUCGCUAGCGCCGGCUGGGCAACAUUCCGAGGGGACCGUCCCCUCGGUAAUGGCGAAUGGGACUCA [G28A C85U]: 0.106; GGCCGGCAUGGUCCCAGCCUCCUCGCUAGCGCCGGCUAGGCAACAUUCCGAGGGGACCGUCCCCUCGGUAAUGGCGAAUGGGACCCA [G28A G38A]: 0.0647; GGCCGGCAUGGUCCCAGCCUCCUCGCGGGCGCCGGCUGGGCAACAUCCCGAGGGGACCGUCCCCUCGGUAAUGGCGAAUGGGACCCA [U27G U47C]: 0.383.
